Earlier results, collected in PMC8874714.

Biological target: CYP102A1 (Priestia megaterium) (UniProt P14779)

CYP102A1 (from UniProt P14779)
Kd: 1.1 nM
